According to article PMC7861197 (Molecular pharmaceutics, 2020):

Experiments:
[1] = FTC concentrations in rat tissues by LC-MS/MS; format: in vivo, Sprague Dawley rats; conditions: for concentration at 4 h: male, Sprague Dawley, rat, iv
[2] = Plasma pharmacokinetics of PLS-FTC vs FTC in rats
[3] = tested on: human PBMCs; conditions: 24 h incubation at 10 ug/mL FTC, normalized to soluble protein
[4] = rat axillary lymph nodes, 4 h post dose
[5] = tested on: wild-type RAW 264.7 cells; test: Flow cytometry of PLS-488 uptake, wild-type RAW 264.7 cells; format: cell-based, murine; conditions: wild-type RAW 264.7, 24 h incubation
[6] = tested on: wild type Raw 264.7 cells; test: Confocal microscopy of PLS-488 uptake, wild type RAW 264.7 cells; format: cell-based, murine
[7] = tested on: SR-A1 knockout Raw 264.7 cells (clone 1/2); test: Confocal microscopy of PLS-488 uptake, SR-A1 deficient RAW cells; format: cell-based, murine; conditions: SR-A1 deficient RAW cell line
[8] = Lymph node distribution of PLS-488 in mice, anti-Alexa488 immunohistochemistry; format: in vivo, C57BL/6 mice; conditions: 6 h and 24 h
[9] = tested on: SR-A1 deficient RAW 264.7 derivative cell line (Clone 1/2); test: Flow cytometry of PLS-488 uptake, SR-A1 deficient Clone 1/2; format: cell-based, murine; conditions: SR-A1 deficient Clone 1/2, 24 h incubation
[10] = In vitro drug release in human plasma with or without esterase inhibitor PMSF; conditions: PMSF-treated vs untreated human plasma
[11] = biological target: T1, scavenger receptor A (SR-A) (Mus musculus, UniProt P30204); test: Scavenger receptor A competitive inhibition studies in RAW 264.7 cells; format: cell-based, murine; conditions: RAW 264.7, 3 h co-treatment, 200 μg/mL poly I or poly C, PLS-488 4.22 ng/mL to […] (Figure 2A)
T1 sequence (P30204 1-458): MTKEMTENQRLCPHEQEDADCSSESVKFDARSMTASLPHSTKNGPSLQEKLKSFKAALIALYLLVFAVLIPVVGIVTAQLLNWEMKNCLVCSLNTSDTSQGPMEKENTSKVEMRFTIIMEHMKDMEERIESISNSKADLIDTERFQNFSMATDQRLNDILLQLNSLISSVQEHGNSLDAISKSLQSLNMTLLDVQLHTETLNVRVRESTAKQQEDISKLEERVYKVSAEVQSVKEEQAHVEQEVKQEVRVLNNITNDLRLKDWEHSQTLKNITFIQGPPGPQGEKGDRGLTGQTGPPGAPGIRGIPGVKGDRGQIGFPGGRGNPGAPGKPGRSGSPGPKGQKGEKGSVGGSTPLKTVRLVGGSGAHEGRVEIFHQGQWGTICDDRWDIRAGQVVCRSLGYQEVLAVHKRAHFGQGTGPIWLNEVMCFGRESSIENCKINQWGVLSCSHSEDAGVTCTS

[12] = male, Sprague Dawley, rat, plasma, iv, 10 mg/kg
[13] = rats, 4 h post i.v. injection, 10 mg FTC equivalents/kg, mean ± SD, n=3
[14] = FTC in plasma, rats, i.v. bolus 10 mg FTC equivalents/kg, mean ± SD (n=8)
[15] = rats, i.v. bolus 10 mg FTC equivalents/kg

For `Nc1nc(=O)n([C@@H]2CS[C@H](CO)O2)cc1F` [FTC, Emtricitabine, reference compound], the concentration at 4 h ([1]; axillary lymph node, 10 mg FTC equivalents/kg) was 109 ± 37 ng/g, the concentration at 4 h ([1]; inguinal lymph node, 10 mg FTC equivalents/kg) was 87 ± 51 ng/g and the concentration at 4 h ([1]; liver, 10 mg FTC equivalents/kg) was 119 ± 51 ng/g. For the same compound, the concentration at 4 h ([1]; popliteal lymph node, 10 mg FTC equivalents/kg) was 105 ± 64 ng/g, the concentration at 4 h ([1]; spleen, 10 mg FTC equivalents/kg) was 106 ± 44 ng/g and the AUC [2, 12] was 6400 ± 1010 ng·h/mL. For the same compound, the C0 [2, 12] was 10600 ± 2950 ng/mL, the Cmax [2, 12] was 5850 ± 853 ng/mL and the MRT [2, 12] was 1.8 ± 0.32 h. For the same compound, the Vd [2, 12] was 2.94 ± 1.09 L/kg, the clearance [2, 12] was 26.7 mL/min/kg and the half-life [2, 12] was 14.1 ± 5.17 h. For the same compound, the “FTC concentration in PBMCs” value [3] was 182 ± 18 ng/mg protein, the “FTC signal abundance (IR-MALDESI MSI)” value [4] was 18.5 ± 16.6 arbitrary units and the frequency of detection [4] was 2.9 ± 2.8 % of sampling locations with measurable drug.

For “AlexaFluor488-labelled poly(L-lysine succinylated) [PLS-488]”, the “uptake of PLS-488 by flow cytometry” value [5] was “uniform uptake”, the “PLS-488 uptake by confocal microscopy” value ([6]; wild type Raw 264.7, 1 μg/mL, 0.5 h) was “uptake was observed at the earliest 0.5 h time point” and the “PLS-488 fluorescence signal after 24 h treatment” value ([6]; wild type vs SR-A1 deficient Raw cells, 1 μg/mL, 24 h) was “markedly greater in the wild type Raw 264.7 cells than the SR-A1 deficient Raw cells”. The “PLS-488 uptake by confocal microscopy” value [7] was “greatly reduced PLS-488 uptake”, the “accumulation in lymph nodes (IHC)” value ([8]; intradermal injection into foot pads) was “robust accumulation of PLS-488 in regions of the draining (popliteal) and peripheral (axillary and inguinal) lymph nodes” and the “accumulation in lymph nodes (IHC)” value ([8]; intravenous tail vein injection) was “early accumulation of PLS-488 into myeloid-rich regions of the deep mesenteric lymph nodes by 6 h, with later accumulation in peripheral lymph nodes”. For the same compound, the “uptake of PLS-488 by flow cytometry” value [9] was “no uptake”.

In the case of “poly(L-lysine succinylated) FTC prodrug [PLS-FTC]”, the “FTC concentration in axillary lymph node” value [1, 13] is reported as 811 ± 65 ng/g, the “FTC concentration in inguinal lymph node” value [1, 13] is reported as 587 ± 56 ng/g and the “FTC concentration in liver” value [1, 13] is reported as 2,257 ± 143 ng/g. The “FTC concentration in mesenteric lymph node” value [1, 13] was 850 ± 540 ng/g, the “FTC concentration in popliteal lymph node” value [1, 13] was 864 ± 330 ng/g and the “FTC concentration in spleen” value [1, 13] was 1,788 ± 164 ng/g. The “fold higher concentrations in lymphatic tissues compared to free FTC control” value ([1]; rats, 4 h post injection, lymph nodes, liver, spleen) was 7 to 19 fold, the “FTC concentration in LN inguinal at 24 h” value ([1]; rats, 24 h after i.v. bolus) was “below limit of quantitation” and the AUCall [2, 14] was 11100 ± 3281 ^* h*ng/mL. The C0 [2, 14] was 4901 ± 3621 ng/mL, the Cl [2, 14] was 17.55 ± 10.3 mL/min/kg and the Cmax [2, 14] was 3839 ± 1734 ng/mL. The MRT [2, 14] was 3.64 ± 0.47 h, the T1/2 [2, 14] was 6.99 ± 2.62 h and the Vss [2, 14] was 3.816 ± 2.254 L/kg. The “fold higher area under the concentration-time curve vs FTC control” value [2, 15] was 2 fold, the “fold higher mean residence time vs FTC control” value [2, 15] was 2 fold and the “fold lower concentration time zero vs FTC control” value [2, 15] was 2 fold. The “fold lower half-life vs FTC control” value [2, 15] was 2 fold and the “prolongation of release half-life in PMSF-treated plasma” value [10] was ~ 2 fold.

For “poly(cytidylic acid) potassium salt [poly C]”, the “inhibition of PLS-488 binding to macrophages” value [11] was “not with the control polymer poly C”.
